Experiment [1] has as its target T1, DNA-PK (Homo sapiens, UniProt P78527).
T1 construct: DNA-PK was purified from HeLa cells; endogenous in cells; host or cells: HeLa S3 cells; the endogenous enzyme was purified in house by chromatography
Kind of experiment: Phosphorylation of recombinant protein substrates by purified DNA-PK (SDS-PAGE, phosphorimage). Format: biochemical. The protocol: The recombinant protein substrates, a total of six, (at approximately 0.1 mg/ml final concentration) were separately mixed with hsp90 in a phosphorylation reaction with purified DNA-PK (0.6 pg, 0.02 units/assay) without (−) or with (+) 5 μg/ml calf thymus DNA, in the presence of ^32P-ATP for 30 minutes at 30° C. as described by Lees-Miller, et al., Mol. Cell. Biol., 12:5041-5049 (1992). The phosphorylation reactions were stopped with SDS sample buffer and analyzed with SDS-PAGE. The gel was fixed, stained with Coomassie brilliant blue, dried and developed by autoradiographic procedures. The results of which can be seen in FIG. 9.

For experiment [2], the target named is T1, DNA-PK. Kind of experiment: Phosphorylation of mouse p53 by DNA-PK as a function of DNA concentration. The following applies: calf thymus DNA 100 μg/ml. It is filed as biochemical. On the procedure: To determine whether DNA binding affected p53 phosphorylation by DNA-PK, the rate of phosphorylation of recombinant wild-type mouse p53 was measured as a function of DNA concentration. At low calf thymus DNA concentrations (0 to approximately 10 μg/ml), the initial rate of p53 phosphorylation increased sharply but then decreased as the DNA concentration was further increased. At DNA concentrations of 100 μg/ml, the rate of p53 phosphorylation fell to approximately 25% of the rate at 5 μg/ml. A similar dependence of phosphorylation rate on calf thymus DNA concentration was observed using SV40 TAg or the human Oct-1 POU domain as substrates.

These results are taken from patent US6803203B1, “DNA-PK assay” (Brookhaven Science Associates, priority 1993, dated 2004).

B1: substrate 1: wild-type recombinant substrate: Ser Gln Glu DNA-PK site and wild-type Oct-1 POU domain; product of p349SUB1 (protein)
chain: MPEESQETFEDLWKLLPGHHHHHHGMSGGMEEPSDLEELEQFAKTFKQRRIKLGFTQGDVGLAMGKLYGNDFSQTTISRFEALNLSFKNMCKLKPLLEKWLNDAENLSSDSSLSSPSALNSPGIEGLSRRRKKRTSIETNIRVALEKSFLENQKPTSEEITMIADQLNMEKEVIRVWFCNRRQKEKRINPQPELAPEDPED
modifications: POUSUB1 artificial DNA-PK substrate
notes: wild-type recombinant substrate: Ser Gln Glu DNA-PK site and wild-type Oct-1 POU domain; product of p349SUB1
As to B1, the “increase in phosphate incorporation by addition of double stranded DNA” value in experiment [1] (5 μg/ml calf thymus DNA compared to no addition of DNA, 30 minutes at 30° C.) was 20 fold. The “phosphorylation by purified DNA-PK (in words)” value in experiment [1] (DNA-dependent, compared with hsp90) is on record as “equal to, if not better than, hsp90”.

B2: recombinant wild-type mouse p53: wild-type mouse p53 purified from Sf9 insect cells infected with recombinant virus NPVp53 (protein, UniProt P02340 1-390, looked up)
Cellular tumor antigen p53: MTAMEESQSDISLELPLSQETFSGLWKLLPPEDILPSPHCMDDLLLPQDVEEFFEGPSEALRVSGAPAAQDPVTETPGPVAPAPATPWPLSSFVPSQKTYQGNYGFHLGFLQSGTAKSVMCTYSPPLNKLFCQLAKTCPVQLWVSATPPAGSRVRAMAIYKKSQHMTEVVRRCPHHERCSDGDGLAPPQHLIRVEGNLYPEYLEDRQTFRHSVVVPYEPPEAGSEYTTIHYKYMCNSSCMGGMNRRPILTIITLEDSSGNLLGRDSFEVRVCACPGRDRRTEEENFRKKEVLCPELPPGSAKRALPTCTSASPPQKKKPLDGEYFTLKIRGRKRFEMFRELNEALELKDAHATEESGDSRAHSSYLKTKKGQSTSRHKKTMVKKVGPDSD
Turning to B2, the “rate of p53 phosphorylation relative to the rate at 5 μg/ml DNA” value in experiment [2] is listed as “approximately 25%”.
